Results on 51 molecules are retold here after patent US20250011363A1, “OPTIMIZED SHORTENED PEPTIDE THAT BINDS TO ACETYLCHOLINE RECEPTOR, AND USE THEREOF” (SKINMED CO., LTD., priority 2021, published 2025).

This experiment addresses acetylcholine receptor. Nature of the experiment: SPR, AchR immobilized on CM5 chip, peptide at 10 uM. (SPR reads the build-up and loss of mass on a sensor chip optically.)

Consider RHAKK [5mer-705], for which the Binding affinity (RU) is 15 RU. The figure for KEPER [5mer-1006] is 17 RU; for KIEAK [5mer-707] it is 32 RU; for RGVCKR [6mer-2-385] it is 154 RU. For KWLRRR [6mer-2-390] the value was 145 RU. For RAWER [5mer-700], the Binding affinity (RU) was 17 RU. For KCCVK [5mer-1013] the value was 19 RU; for KEDNK [5mer-1002], 12 RU; for KSLYKK [6mer-2-389], 153 RU.

With KTKFK [5mer-999], the Binding affinity (RU) came to 19 RU. For KEKAR [5mer-710], the Binding affinity (RU) worked out at 21 RU. As for KPCGK [5mer-1001], the Binding affinity (RU) was 33 RU. The figure for KPKAR [5mer-708] is 20 RU; for RSILRK [6mer-2-401] it is 153 RU; for KWRYRR [6mer-2-395] it is 148 RU.

In turn, RWLTRR [6mer-2-399] yielded a Binding affinity (RU) of 148 RU. The figure for KWLCKK [6mer-2-387] is 146 RU; for RQIRRR [6mer-2-400] it is 154 RU; for KCDNK [5mer-1010] it is 16 RU. For RNHNK [5mer-701], the Binding affinity (RU) was 22 RU. For RMTVR [5mer-1003] the value was 11 RU. For KECIK [5mer-711] the value was 32 RU; for RSIYRK [6mer-2-397], 154 RU. For KWQSKR [6mer-2-386] the value was 136 RU; for KHCWR [5mer-1000], 20 RU. On to KMCAK [5mer-1009], for which the Binding affinity (RU) came to 29 RU.

Turning to KLVLKR [6mer-2-394], the Binding affinity (RU) was determined as 141 RU. RHKVR [5mer-1012] returned a Binding affinity (RU) of 22 RU. The figure for RTHGR [5mer-1005] is 30 RU; for KISHK [5mer-702] it is 30 RU. For the molecule RKNKR [5mer-1014], the Binding affinity (RU) stood at 23 RU. As to RPCAK [5mer-714], the Binding affinity (RU) worked out at 32 RU. The figure for RQILKR [6mer-2-392] is 149 RU. The figure for KYPKK [5mer-713] is 16 RU; for KCNGR [5mer-715] it is 22 RU; for RGLQRK [6mer-2-393] it is 145 RU. The figure for RDADR [5mer-1004] is 30 RU. Take RADFK [5mer-712]: the Binding affinity (RU) came out at 18 RU. The molecule KPNWR [5mer-703] returned a Binding affinity (RU) of 22 RU. For RDMMR [5mer-1007] the value was 30 RU; for KQYQKR [6mer-2-391], 141 RU; for KTDMK [5mer-1011], 25 RU. The figure for RFMGK [5mer-704] is 28 RU; for KKNER [5mer-699] it is 12 RU. For KWLQRR [6mer-2-396] the value was 122 RU; for RHTIR [5mer-709], 27 RU; for RCWMK [5mer-1015], 30 RU.

With KRFQKK [6mer-2-388], the Binding affinity (RU) came to 139 RU.

Molecule KDSNR [5mer-1008] showed a Binding affinity (RU) of 11 RU. The molecule RQQRRR [6mer-2-398] returned a Binding affinity (RU) of 141 RU. For RKMAK [5mer-706] the value was 27 RU.
